Patent publication US10480012B2, “CYP-P22 biocatalytic nanoparticles with cytochrome P450 activity for prodrug activation” (UNIVERSIDAD NACIONAL AUTÓNOMA DE MÉXICO, priority 2015, dated 2019)

Legend:
trypsin = test: Stability to protease degradation (trypsin), residual activity; format: physicochemical; conditions: 10 U trypsin per mg protein, room temperature
Experimental: For proteolysis assays, the encapsulated and free enzyme was treated with 10 U of trypsin per mg protein, incubating for 1 and 20 h at room temperature. At the end of each time, an aliquot was taken out of the sample and the residual activity was measured in 100 mM Tris-HCl buffer pH 8 using 500 μM 2,6-DMP as substrate and initiating the reaction with 5 mM H2O2.

[1] = tested on: human MCF7 breast cancer cells; test: CYP activity in tumor cells treated with nanoparticles (BFC fluorescence assay); format: cell-based; conditions: 100 μM BFC, fluorescence images
Experimental: I) The presence of biocatalytic nanoparticles (loaded nanoparticles) with CYP activity is evaluated in transformation of 7-benzyloxy-4-trifluorometyl-coumarin (BFC) monitored by fluorescence according to the method of Donato et al.. The fluorescence assay for determining CYP activity is performed with a direct incubation of cultured tumor cells in a 12-well plate in the presence of BFC 100 μM. […] After 60 min incubation at 37° C. the incubation medium is removed and the conjugated products of CYP transformation will be hydrolyzed with a mixture of 3-giucoronidase/arylsulfatase for 2 hours at 37° C. Finally, samples are diluted with the corresponding solution and product fluorescence (7-hydroxy-4-trifluoromethylcoumarin, HFC) is quantified in a spectrofluorimeter with 410 nm excitation and 510 nm emission.
J) Affinity evaluation of functionalized loaded nanoparticles in tumor cells in vitro is carried out in human MCF7 breast cancer cells that are maintained in DMEM medium (Dulbecco's Modified Eagle's Medium) supplemented with 10% fetal bovine serum. […] The presence of biocatalytic nanoparticles (CYP-P22) with CYP activity is evaluated in the transformation of 7-benzyloxy-4-trifluoromethyl-coumarin (BFC) monitored by fluorescence according to the method of Donato et al.. […]

[2] = Kinetic parameters of encapsulated and free CYP with 2,6-DMP and H2O2; format: biochemical
Experimental: To calculate the kinetic parameters using 2,6-DMP as a substrate, two curves were constructed with two different concentrations of hydrogen peroxide, 5 mM and 60 mM. Reactions were carried out in 0.1 mL (50 mM Tris-HCl pH 8) with the following phenol concentrations: 10, 25, 50, 125, 250 and 500 μM. The reaction was started by adding 5 mM or 60 mM of H2O2. The amount of encapsulated enzyme used was 42.9 picomoles (assays with 5 mM H2O2) and 21.45 picomoles (assays with 60 mM H2O2); the amount of protein was determined by a concentration assay, specific for CYP450, for binding to CO. The catalytic activity was spectrophotometrically monitored at 468 nm (ε468=14800 M^−1 cm^−1 using an Agilent 8453 UV-vis spectrophotometer. Catalytic constants were obtained through the GraphPad Prism 6 program.
H) Catalytic capacity of P22 capsids with CYP inside is evaluated. Reactions were carried out in 0.1 mL (50 mM Tris-HCl pH 8) with the following phenol concentrations: 10, 25, 50, 125, 250 and 500 μM. The reaction was started by adding 5 mM or 60 mM of H2O2. The amount of encapsulated enzyme used was 42.9 picomoles, the amount of protein was determined by a CO binding assay specific for CYP450. Catalytic activity was spectrophotometrically monitored at 468 nm (ε468=14800 M^−1 cm^−1). […] The encapsulated enzyme follows a Michaelis-Menten kinetics as does free CYP.

[3] = Temperature stability, activity retention at 40 and 50° C.; format: physicochemical
Experimental: Stability of encapsulated CYP and the free enzyme was determined by measuring the percentage of activity retention at different times when the protein was incubated at 40 and 50° C. in a water bath. Incubation times for each of the temperatures were 0, 5, 10, 15 and 30 min. At the end of each time, an aliquot was removed from the sample, centrifuged for 1 min at 16,000×g and left to rest for 10 min to temper the sample before measuring activity. Catalytic activity was measured in a final volume of 0.1 mL in 100 mM Tris-HCl buffer pH 8 using 500 μM 2,6-DMP as substrate and initiating the reaction with 5 mM H2O2.

pH activity profile = format: biochemical; conditions: 500 μM 2,6-DMP, 5 mM H2O2
Experimental: To determine the activity profile at different pH values for the encapsulated and free enzyme, catalytic activity was measured at the following pHs: 5 (100 mM sodium acetate), 6 (100 mM potassium phosphate}, 7, 8 and 9 (100 mM Tris-HCl), 10 (100 mM borates). Catalytic activity was measured in a final volume of 0.1 mL using as substrate 500 μM 2,6-DMP and initiating the reaction with 5 mM H2O2.

B1: CYP-P22: cytochrome P450 (CYPBM3 “21B3” fused to scaffold protein) encapsulated in a bacteriophage P22 nanocapsid (protein)
chain: MAIKEMPQPKTFGELKNLPLLNTDKPVQALMKIADELGEIFKFEAPGRVTRYLSSQRLVKEACDESRFDKNLSQALKFVRDFAGDGLATSWTHEKNWKKARNILLPSLSQQAMKGYHAMMVDIAVQLVQKWERLNSDEKIEVPEDVTRLTLDTIGLCGFNYRFNSFYRDQPHPFITSMVRALDEAMNKLQRANPDDPAYDENKRQFQEDIKVMDLVDKIIADRKASGEQSDDLLTHMLHGKDPETGEPLDDENIRYQIITFLIAGHETTSGLLTFALYFLVKNPHVLQKAAEEAARVLVDPVPSYKQVKQLKYVGMVLNEALRLWPTAPAFSLYAKEDTVLGGEYPLEKGDELMVLIPQLHRDKTIWGDDVEEFRPERFENPSAIPQHAFKPFGNGQRACIGQQFALHEATLVLGMMLKHFDFEDHTNYELDIEETLTLKPEGFVIKAKSKKIPLGGIPSPSTGSLVPRGSCRSNAVAEQGRKTQEFTQQSAQYVEAARKHYDAAEKLNIPDYQEKEDAFMQLVPPAVGADIMRLFPEKSAALMYHLGANPEKARQLLAMDGQSALIELTRLSERLTLKPRGKQISSAPHADQPITGDVSAANKDAIRKQMDAAASKGDVETYRKLKAKLKGIR
trypsin; 1 hour
  activity retained after incubation with trypsin: 96%
trypsin; 20 hours
  activity retained after incubation with trypsin: 38%
[1]
  cytochrome P450 activity in treated tumor cells versus endogenous activity in untreated cells: much greater
[2]
  catalytic activity using 2,6-DMP and H2O2 as substrates: catalytically active
[2]; substrate 2,6-DMP, 5 mM H2O2, 50 mM Tris-HCl pH 8
  kcat app: 127.2 (±2.3) min^−1
[3]; 40° C.
  stability compared with free enzyme: practically the same
[3]; 50° C.
  inactivation compared with free CYP: even faster than that found for free CYP
pH activity profile
  pH of optimum activity: pH 8 and 9
